Here are results for one protein from publication PMC4576200 (Viruses, 2015).

This data set deals with the molecule itself. Nature of the data set: AUC.

B1: gp5β-BC, solvent-exposed part of the β-helical domain of bacteriophage T4 gene product 5 (residues 483–575) (domain or fragment, UniProt P16009 483-575, looked up)
chain: RGDETKTVEGNGTILVKGNVTIIVEGNADITVKGDATTLVEGNQTNTVNGNLSWKVAGTVDWDVGGDWTEKMASMSSISSGQYTIDGSRIDIG
A word on the stoichiometry N: it is the number of molecules, sites or subunits per partner or assembly. Turning to B1, the “stoichiometry N” value is 3.
